The numbers were not newly measured in publication PMC7139808, which cites them from elsewhere.

Data set [1] addresses hemoglobin (Mus musculus) (UniProt P01942).
The target of data set [2] is hemoglobin (Homo sapiens) (UniProt P69905).
Sequence of UniProt P69905 (P69905 2-142, chain 1 of 2): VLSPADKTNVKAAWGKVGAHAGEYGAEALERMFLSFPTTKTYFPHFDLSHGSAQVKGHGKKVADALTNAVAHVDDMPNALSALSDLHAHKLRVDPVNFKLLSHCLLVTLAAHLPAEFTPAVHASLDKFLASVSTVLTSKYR
Sequence of UniProt P69905 (P68871 2-147, chain 2 of 2, further chain): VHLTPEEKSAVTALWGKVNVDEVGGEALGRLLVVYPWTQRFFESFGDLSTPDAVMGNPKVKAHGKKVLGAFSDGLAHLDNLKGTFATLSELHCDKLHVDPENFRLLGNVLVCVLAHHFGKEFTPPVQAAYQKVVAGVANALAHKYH

Sequence of UniProt P01942 (P01942 2-142, chain 1 of 2): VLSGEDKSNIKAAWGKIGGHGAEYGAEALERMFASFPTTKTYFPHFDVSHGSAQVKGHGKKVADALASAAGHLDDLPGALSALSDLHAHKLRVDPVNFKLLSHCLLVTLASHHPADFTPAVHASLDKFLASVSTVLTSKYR
Sequence of UniProt P01942 (P02088 2-147, chain 2 of 2, further chain): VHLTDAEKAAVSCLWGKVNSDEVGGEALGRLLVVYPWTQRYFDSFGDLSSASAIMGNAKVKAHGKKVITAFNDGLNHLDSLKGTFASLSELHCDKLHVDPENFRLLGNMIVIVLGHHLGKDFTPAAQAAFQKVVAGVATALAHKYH

Take IsdB (from UniProt A7X146): the Kd in data set [1] was 0.98 µM; in data set [2], 0.055 µM.
